Residue numbers refer to the chain shown, from its start. In names and notes the source's numbering stands.
B1: A97T (protein)
chain: MQLRNPELHLGCALALRFLALVSWDIPGARALDNGLARTPTMGWLHWERFMCNLDCQEEPDSCISEKLFMEMAELMVSEGWKDAGYEYLCIDDCWMTPQRDSEGRLQADPQRFPHGIRQLANYVHSKGLKLGIYADVGNKTCAGFPGSFGYYDIDAQTFADWGVDLLKFDGCYCDSLENLADGYKHMSLALNRTGRSIVYSCEWPLYMWPFQKPNYTEIRQYCNHWRNFADIDDSWKSIKSILDWTSFNQERIVDVAGPGGWNDPDMLVIGNFGLSWNQQVTQMALWAIMAAPLFMSNDLRHISPQAKALLQDKDVIAINQDPLGKQGYQLRQGDNFEVWERPLSGLAWAVAMINRQEIGGPRSYTIAVASLGKGVACNPACFITQLLPVKRKLGFYEWTSRLRSHINPTGTVLLQLENTMQMSLKDLL
B2: P98H (protein)
chain: B1 chain with T97A, P98H
B3: P98L (protein)
chain: B1 chain with T97A, P98L
B4: P98R (protein)
chain: B1 chain with T97A, P98R
B5: Q99E (protein)
chain: B1 chain with T97A, Q99E
B6: Q99L (protein)
chain: B1 chain with T97A, Q99L
B7: Q99P (protein)
chain: B1 chain with T97A, Q99P
B8: Q99R (protein)
chain: B1 chain with T97A, Q99R
B9: D101A (protein)
chain: B1 chain with T97A, D101A
B10: D101E (protein)
chain: B1 chain with T97A, D101E
B11: D101G (protein)
chain: B1 chain with T97A, D101G
B12: D101H (protein)
chain: B1 chain with T97A, D101H
B13: D101V (protein)
chain: B1 chain with T97A, D101V
B14: S102A (protein)
chain: B1 chain with T97A, S102A
B15: S102P (protein)
chain: B1 chain with T97A, S102P
B16: S102T (protein)
chain: B1 chain with T97A, S102T
B17: G104A (protein)
chain: B1 chain with T97A, G104A
B18: G104D (protein)
chain: B1 chain with T97A, G104D
B19: G104S (protein)
chain: B1 chain with T97A, G104S
B20: R105G (protein)
chain: B1 chain with T97A, R105G
B21: R105I (protein)
chain: B1 chain with T97A, R105I

What follows are molecules tested on mutant form of α-Gal A expressed in HEK-293 cells (assay: HEK assay (GLP HEK / Migalastat Amenability Assay): α-Gal A activity in lysates of transiently transfected HEK-293 cells incubated with or without 10 μM migalastat). Conditions: 10 μM migalastat versus baseline.
Format: cell-based, human
Procedure: Such mutations or variants are also referred to herein as “HEK assay amenable” mutations or variants.
The α-Gal A activity is expressed as the nmoles of free 4-MU released per milligram of protein per hour (nmol/mg/hr).
In Table 7, values for the mean±standard error of the mean (SEM) were calculated. nmol/mg/hr indicates “nmoles of free 4-MU released per mg of protein per hour”. WT indicates “wild-type”. NC indicates “not calculable”. N/A indicates “not applicable”.

Row | Molecule | Absolute increase (% WT)
1 | B1 | 21.4 % WT
2 | B2 | 22.5 % WT
3 | B3 | 19.6 % WT
4 | B4 | 16.4 % WT
5 | B5 | 25.5 % WT
6 | B6 | 27.4 % WT
7 | B7 | 19.1 % WT
8 | B8 | 21.4 % WT
9 | B9 | 10.2 % WT
10 | B10 | 10.1 % WT
11 | B11 | 12.7 % WT
12 | B12 | 7.3 % WT
13 | B13 | 10.2 % WT
14 | B14 | 27.3 % WT
15 | B15 | 22.3 % WT
16 | B16 | 20.5 % WT
17 | B17 | 40.4 % WT
18 | B18 | 30.5 % WT
19 | B19 | 52.0 % WT
20 | B20 | 15.3 % WT
21 | B21 | 8.2 % WT

Same assay, conditions: 10 μM migalastat α-Gal A activity relative to baseline

Row | Molecule | Relative increase
22 | B1 | 1.8
23 | B2 | 1.4
24 | B3 | 1.3
25 | B4 | 1.3
26 | B5 | 1.4
27 | B6 | 1.4
28 | B7 | 3.3
29 | B8 | 1.2
30 | B9 | 1.5
31 | B10 | 1.4
32 | B11 | 1.3
33 | B12 | 1.4
34 | B13 | 2.2
35 | B14 | 1.6
36 | B15 | 1.3
37 | B16 | 1.3
38 | B17 | 3.7
39 | B18 | 1.8
40 | B19 | 3.9
41 | B20 | 1.4
42 | B21 | 1.3

Same assay, conditions: 10 μM migalastat, 5 days; percentage of baseline wild-type α-Gal A activity; mean ± SEM

Row | Molecule | 10 μM migalastat α-Gal A activity (% WT)
43 | B1 | 50.9 ± 2.7 % WT
44 | B2 | 83.4 ± 4.6 % WT
45 | B3 | 88.5 ± 6.3 % WT
46 | B4 | 85.8 ± 5.8 % WT
47 | B5 | 95.8 ± 7.9 % WT
48 | B6 | 93.4 ± 7.3 % WT
49 | B7 | 28 ± 2.4 % WT
50 | B8 | 114.8 ± 8 % WT
51 | B9 | 34.1 ± 3.3 % WT
52 | B10 | 34 ± 2.8 % WT
53 | B11 | 54.5 ± 3.8 % WT
54 | B12 | 23.8 ± 1.3 % WT
55 | B13 | 18 ± 2.6 % WT
56 | B14 | 69.9 ± 5.1 % WT
57 | B15 | 91.7 ± 5 % WT
58 | B16 | 76.9 ± 6.2 % WT
59 | B17 | 55.2 ± 3 % WT
60 | B18 | 69.8 ± 4.7 % WT
61 | B19 | 69.8 ± 5.8 % WT
62 | B20 | 53.3 ± 3.5 % WT
63 | B21 | 41.6 ± 3.1 % WT

Same assay, conditions: absence of migalastat; percentage of baseline wild-type α-Gal A activity; mean ± SEM

Row | Molecule | Baseline α-Gal A activity (% WT)
64 | B1 | 29.4 ± 2.2 % WT
65 | B2 | 60.8 ± 3.1 % WT
66 | B3 | 69 ± 5.5 % WT
67 | B4 | 69.4 ± 4 % WT
68 | B5 | 70.3 ± 4.1 % WT
69 | B6 | 65.9 ± 5.1 % WT
70 | B7 | 8.8 ± 1.2 % WT
71 | B8 | 93.4 ± 6.3 % WT
72 | B9 | 23.9 ± 3 % WT
73 | B10 | 23.9 ± 1.6 % WT
74 | B11 | 41.8 ± 3.1 % WT
75 | B12 | 16.5 ± 1.2 % WT
76 | B13 | 7.8 ± 0.5 % WT
77 | B14 | 42.6 ± 3.5 % WT
78 | B15 | 69.4 ± 3.4 % WT
79 | B16 | 56.4 ± 5.2 % WT
80 | B17 | 14.8 ± 1 % WT
81 | B18 | 39.3 ± 2.6 % WT
82 | B19 | 17.9 ± 1.8 % WT
83 | B20 | 38 ± 2.1 % WT
84 | B21 | 33.4 ± 2.2 % WT

Same assay, conditions: lysates of HEK-293 cells transfected with the mutant form, incubated 5 days in the absence of migalastat; mean ± SEM

Row | Molecule | Baseline α-Gal A activity
85 | B1 | 11157 ± 776 nmol/mg/h
86 | B2 | 21896 ± 1232 nmol/mg/h
87 | B3 | 24223 ± 1555 nmol/mg/h
88 | B4 | 24969 ± 1730 nmol/mg/h
89 | B5 | 25264 ± 1668 nmol/mg/h
90 | B6 | 23382 ± 1548 nmol/mg/h
91 | B7 | 3034 ± 340 nmol/mg/h
92 | B8 | 32963 ± 1757 nmol/mg/h
93 | B9 | 10144 ± 1069 nmol/mg/h
94 | B10 | 10465 ± 624 nmol/mg/h
95 | B11 | 18091 ± 1103 nmol/mg/h
96 | B12 | 7311 ± 556 nmol/mg/h
97 | B13 | 3368 ± 179 nmol/mg/h
98 | B14 | 17330 ± 2084 nmol/mg/h
99 | B15 | 27252 ± 1778 nmol/mg/h
100 | B16 | 22123 ± 2319 nmol/mg/h
101 | B17 | 5271 ± 397 nmol/mg/h
102 | B18 | 14123 ± 1096 nmol/mg/h
103 | B19 | 5720 ± 464 nmol/mg/h
104 | B20 | 16513 ± 681 nmol/mg/h
105 | B21 | 9696 ± 798 nmol/mg/h

Same assay, conditions: lysates of HEK-293 cells transfected with the mutant form, incubated 5 days with 10 μM migalastat; mean ± SEM

Row | Molecule | 10 μM migalastat α-Gal A activity
106 | B1 | 19875 ± 1502 nmol/mg/h
107 | B2 | 29920 ± 1808 nmol/mg/h
108 | B3 | 31835 ± 2399 nmol/mg/h
109 | B4 | 31289 ± 2550 nmol/mg/h
110 | B5 | 34635 ± 3117 nmol/mg/h
111 | B6 | 33479 ± 2746 nmol/mg/h
112 | B7 | 9885 ± 794 nmol/mg/h
113 | B8 | 41024 ± 3001 nmol/mg/h
114 | B9 | 14707 ± 1289 nmol/mg/h
115 | B10 | 14682 ± 993 nmol/mg/h
116 | B11 | 23672 ± 1428 nmol/mg/h
117 | B12 | 10493 ± 561 nmol/mg/h
118 | B13 | 7489 ± 936 nmol/mg/h
119 | B14 | 26790 ± 1958 nmol/mg/h
120 | B15 | 35885 ± 2754 nmol/mg/h
121 | B16 | 29662 ± 2559 nmol/mg/h
122 | B17 | 19670 ± 1202 nmol/mg/h
123 | B18 | 24797 ± 1771 nmol/mg/h
124 | B19 | 22242 ± 1000 nmol/mg/h
125 | B20 | 22993 ± 1042 nmol/mg/h
126 | B21 | 12128 ± 1157 nmol/mg/h
